We go through four molecules from US20060024698, “Method to protect DNA ends” (published 2006).

Data set [1] deals with T1, DdrA (DR0423) (Deinococcus radiodurans R1, UniProt Q9RX92 SEQ:1-208).
T1 sequence: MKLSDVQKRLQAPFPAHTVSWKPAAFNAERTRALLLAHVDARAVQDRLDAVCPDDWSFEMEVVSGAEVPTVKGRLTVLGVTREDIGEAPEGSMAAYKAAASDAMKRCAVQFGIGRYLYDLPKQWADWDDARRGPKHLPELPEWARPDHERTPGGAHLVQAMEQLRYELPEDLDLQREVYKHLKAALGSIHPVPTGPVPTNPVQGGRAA
Nature of the data set: FP; KD,app; 1.0 nM DNA, 30 C, 30 min. To be noted: tags: untagged, expressed in E. coli from pEAW298; chain copies: 8-10 subunit oligomer in solution by gel filtration (stated); label: 3' fluorescent tag. Here is the method:
FIG. 9 is a graph of fluorescence anisotropy data for DdrA binding to single-stranded DNA. Increasing concentrations of DdrA protein were incubated with 3′-fluorescently tagged DNA (1.0 nM) at 30° C. for 30 minutes. Samples were analyzed using the Beacons 2000 Fluorescence Polarization System and a curve was generated suing CURVE EXPERT 1.3 software. The K_{D,app} for each substrate is the concentration of DdrA when 50% of the DNA is bound as determined by the generated curve fit.

In data set [2] the target is T1, DdrA (DR0423). Kind of data set: EMSA; 4 uM DdrA; not disrupted by 1000-2000 fold excess of 5'-extension oligo. To be noted: tags: untagged, expressed in E. coli from pEAW298; chain copies: 8-10 subunit oligomer in solution by gel filtration (stated); label: 3'-32P ddATP; 18 bp hairpin with 16 nt 3' single-strand extension. Background: Mobility shift assays separate free from complexed probe on a gel.
Protocol: Four sets of EMSA assays are presented, with the gels and electrophoresis conditions carefully matched. DNA substrate concentrations are 0.7 nM in each case, reported as total molecules. In each set, the first three lanes have show the effects of the indicated concentration of DdrA protein. […] In set D, the sixth and seventh lanes are identical to the third lane (with 4 μM DdrA protein), except that they have been challenged with a 1000-fold or 2000-fold excess of unlabeled oligo with a 5′ extension, respectively. The unlabeled challenge oligo is the same as that used in reaction set C. (FIG. 7A) Single-strand oligonucleotides (51 nucleotides in length), labelled on the 5′ end. (FIG. 7B) 5′ end-labeled duplex DNA fragments (51 bp). (FIG. 7C) 5′-end-labelled oligonucleotide, with a self-complementary sequence leading to the formation of an 18 bp hairpin and a 15 nucleotide 5′ single strand extension. (FIG. 7D) 3′ end-labelled oligonucleotide, with a self-complementary sequence leading to the formation of an 18 bp hairpin and a 16 nucleotide 3′ single strand extension. The sequences of the single strand extensions in the oligos used in sets C and D are matched, except that an extra adenosine residue has been added to the oligo used in set D during the labelling process.

For the molecule GGCCTCGCGGTAGCTGAGCTCGGAGCGCACGATTCGCACTGCTGATGTTC (ssDNA) [50 nt ssDNA], the Kd in the data set with DdrA (DR0423) [1] amounted to 118 nM.

For the molecule GCGTGGGTAATTGTGCTTCAATGGACTGAC (ssDNA) [30 nt ssDNA], the Kd with DdrA (DR0423) [1] amounted to 406 nM.

In turn, AAGCACAATTACCCACGC (ssDNA) [18 nt ssDNA] had a Kd in the data set with DdrA (DR0423) [1] of 640 nM.

B1: hairpin with 3' extension (oligo A) (structured_DNA)
DNA: TTAACGACCGTCGACCTGCAGGTCGACGGTCGTTAACGTCTCTCAGATTGT
modifications: 3'-terminal ddA added
Turning to B1, the binding result with DdrA (DR0423) [2] is given as “binds”.
